Source: patent US12286661B2, “Methods for making high intensity sweeteners” (Firmenich Incorporated, priority 2018, dated 2025)

B1: SEQ ID NO. 1042/1043: CYP450 enzyme (DNA/protein SEQ ID NO) producing 11-OH cucurbitadienol (protein, listed as Siraitia grosvenorii)
chain: MAIFFFFFFFLLVVSVVFVFLFLRASRFRRVRLPPGSLGLPLIGETLQLISAYKTENPEPFIDERVRRFGAVFTTHLFGEPTVFSADWETNRFILQNEEKLFECSYPGSISNLLGKHSLLLMKGNLHKRMHSLTMSFANSSIIRDHLLLDVDRLIRLNLDSWTGRIFLMEEAKKITFELAVKQLMSFDRCEWTQNLMKEYLLVIEGFFTVPLPLLSTTYRRAIRARTKVAEALGLVVRQRRKESDAGKRKNDMLGALLAAEDALSDDQIVDFLLALLVAGYETTSTTMTLAVKFLTEAPLALTQLQEEHEQIKARKKEADQHLQWNDYKSMPFTQCVVNETLRVANIISGVFRRAMTDINIKGYTIPKGWKVFASFRAVHLDHDHFKDARSFNPWRWQQNTSGSTVNAFTPFGGGPRLCPGYELARVELSVFLHHFVTQFSWVPAEDDKLVFFPTTRTQKRYPINVMRKNETRQRKDSLDSRHMKGQESSFDM
B2: SEQ ID NO. 1034/1035: CYP450 enzyme (DNA/protein SEQ ID NO) producing 11-OH cucurbitadienol (protein)
chain: MEIINGVFLILPLGFVLVFEVLKRLNGLYYAVKLGKKWGELPPGDLSWPLLGSTLSFLKSFTVGPPESFIRIFTTRYGKVDMYKTHMFGRASILVCKPEICRQVLIDETKFVPSYPACMKRLFGRKSLIRVSKAEHRKLRRMTMAPISSHAALEIYIEHTEHTVISGLEEWSSVEKPLKLLTEIKELTFKIIWNIFMGSTSIDYTTKEMEALYDDVALGLFCFPINFPGFNFHKSLKARKRLYEILLSIVNEKRLMKKSKGESWEAKDMMDLMTEVEDEDGEGMDNETITDLIFGKLFAGHETSAFTTMWAIIFLTDHPHIFQRAKEEQEDIIRRRPSTQKGINLVEFKQMKFLSQVIDETLRLSSIAFATFREATTDININGKLIPKGWKVILWHRGLYMDEELHPSPQDFNPSRWDDFIGNPGAFTPFGLGVRLCPGRDLAKLEISIFLHHFLLNYKIERYNPQCQLTYLPLPHPKDKCLARVLKAAGQCV
modifications: Cucurbita pepo
B3: SEQ ID NO. 1036/1037: CYP450 enzyme (DNA/protein SEQ ID NO) producing 11-OH cucurbitadienol (protein, listed as Lagenaria siceraria)
chain: MELIINNWLLILSCVGFALGLGVLKRLNNLYYAIKLGKKWDEVPPGDLSWPLLGSTLSFIKYFTLGPPHNFIAQFSNRYGKVDMYKTHIFGRASIIVCKPEICRQVLTDETKFAPGYPTTMTSLFGRRSLHRVSKVEHRKLRRLTTTPISSHAALELYIDHIEHTVINGLEEWSSMEKPLELLTVIKELTFKIIWNIFMGSTPMGSIAIREMEALYNDISLGFFCLPINFPGFYFHKSLKARKRLHEILQCIVNEKRLVKKSKGETWEAKDMMDLMIEVRDEDGEGMDDETIVDLIFGKLFAGQETSAFTTMWAILFLTNNPHVFQKAKVIDETLRVSSITFATFREAMTDVKINGKIIPKGWKVILWLRELNMDEKLHTSPQEFNPSRWDNFIGNPGAFTPFGLGVRMCPGRDLAKLEISIFLHYFLLNYKVEQLNPQCQLDYLPIPHPKDKCLARVLKVA
B4: SEQ ID NO. 1044/1045: CYP450 enzyme (DNA/protein SEQ ID NO) producing 11-OH cucurbitadienol (protein, listed as Siraitia grosvenorii)
chain: MDELKWFVLIPATFFLVVFVFEVLKRLNGWYYATKLWKIWDELPPGDMGWPLLGSTLSYINDFTAGQPQNFIRTFSNRYGKADMYKTHILGRASIIICTPEICRQVLTNEDKFKPSLPGNMKILSGRKSLMQVSKAEHRRLRRLTMAPISGHAALEMYISHIQATVVGGLEEWASIQRPVELVTEIKRLTFKVIWNIFMGSTSLDSSMGAMEALFSDVAVGFLSLPINFPGFYFHKSLKARKRLIEILQSIINEKRLVKKSKGESWEAKDMMDLMIEVKDEDGEELDDETIIDLIFGKLFAGHETSAFTAMWAVLFLTDHPQIFQKAKEEQEEIIRRRPSTQKGINLSDYKQMKFLSQVIDETLRVSCITSLLFREATADVEINGKIIPKGWRVLPWLGMLYMDENLFPSPQEFNPSRWDNFVPKPGAFIPFGVGNRFCPGSDLAKLEISIFLHYFLLNYKVERLNPKCHLTCLPFPHPTDKCLARVHKVA
B5: SEQ ID NO. 1040/1041: CYP450 enzyme (DNA/protein SEQ ID NO) producing 11-OH cucurbitadienol (protein, listed as Siraitia grosvenorii)
chain: MEVELTNFWVMILAAVLGFCVFVFGFLRRFNDLWTMVKLGKKVYKTLPPGDMGWPLIGSSLWFYKAFSASGDPDSFIKHLRSRYGRVGMYKTHLFGKPAVIVTDPEICRRVYSDDKHFVMSYPKSVKILGTGSLSRIDHRITHRFMAAPINGSEALARYVGFIEQVVVRGLEEWSSMRKPIELLHEIKRLTFRIIIHVFMGSALDPHIPKLEKLYAELSAAVFVAFAIDVPGSTYHRALKAKEEIQNILRPVIEEKRRIIEKNEEMEDKCQLDAVIKGKNGKGEKIFDNDAIIDMLLGLLYAGHHTSAHGTMWALIQLLEHPQVYEKAKEEQELIMKQRPSTQKGLIFNEIKQMTYLVKVINEMLRRVSIVFANFREAATDVNINGYTIPKGWVVPVWIKGVHMDPQIYPNPEEFNPSRWDTHTPKPGAFIPFGFGNRFCPGNELAKLEITILLHHFLLKYRWERVNPKASITSVPMPSPIDQCLAKITAIPSS
B6: SEQ ID NO. 889/890: CYP450 enzyme (DNA/protein SEQ ID NO) producing 11-OH cucurbitadienol (protein)
chain: MEVHWVCMCAATLLVCYIFGSKFVRNLNGWYYDVKLRRKEHPLPPGDMGWPLMGNLLSFIKDFSSGHPDSFINNLVLKYGRSGIYKTHLFGNPSIIVCEPQMCRRVLTDDVNFKLGYPKSIKELARCRPMIDVSNAEHRLFRRLITSPIVGHKALAMYLERLEEIVINSLEELSSMKHPVELLKEMKKVSFKAIVHVFMGSSNQDIIKKIGSSFTDLYNGMFSIPINVPGFTFHKALEARKKLAKIVQPVVDERRLMIENGQQEGDQRKDLIDILLEVKDENGRKLEDEDISDLLIGLLFAGHESTATSLMWSITYLTQHPHILKKAKEEQEEIMRTRLSSQKQLSFKEIKQMVYLSQVIDETLRCANIAFATFREATADVNINGYIIPKGWRVLIWARAIHMDSEYYPNPEEFNPSRWDDYNAKAGTFLPFGAGSRLCPGADLAKLEISIFLHYFLLNYRLERVNPECHVTSLPVSKPTDNCLAKVMKVSCA
modifications: Pathway step 3 sequence T CYP88D6 (codon optimized)
B7: SEQ ID NO. 1038/1039: CYP450 enzyme (DNA/protein SEQ ID NO) producing 11-OH cucurbitadienol (protein, listed as Siraitia grosvenorii)
chain: MLSFLGFAAFFFCFFLIHSLFKLFSAARRKLPLPPGSMGWPYMGETLQLYSQDPNVFFASKKKRYGPIFKSHILGYPCVMLSSPEAVKFVLVTKAHLFKPTFPASKERMLGKNAIFFHQGDYHAKLRRLVLRTFMPEAIRIMVPSIESIAKNTVQSWEGQLINTFQEMKMFAFEVSLLSIFGKDEALYFEDLKRCYYILEKGYNSMPINLPGTLFHKAMKARKELAHILNKILSTRREMKPDHNDLLGSFMGQKEGLTDEQIADNVIGLIFAARDTTASVLTWILKYLGENPSVLQAVTAEQEAIMKQKRSAHDNLTWGDTKNMPITSRVIQETLRVASVLSFTFREAVEDVEFDGYLIPKGWKVLPLFRNIHHSPEIFPQPDKFDPSRFEVAQKPNTYMPFGSGTHSCPGNELAKLEMLVLLHHLTTKYRWSVVGAQEGIQYGPFALPHNGLPIRISLKK
B8: SEQ ID NO. 1032/1033: CYP450 enzyme (DNA/protein SEQ ID NO) producing 11-OH cucurbitadienol (protein, listed as Cucurbita maxima)
chain: MWTIVVGLATLAVAYYIHWINKWKDSKFNGVLPPGTMGLPLIGETLQLSRPSDSLDVHPFIKKKVKRYGSIFKTCLAGRPVVVSTDAEFNNYIMLQEGRAVEMWYLDTLSKFFGLDTEWLKALGFIHKYIRSITLNHFGAESLRERFLPRIEESAKETLCYWATQPSVEVKDSAAVMVFRTSMVKMVSKDSSKLLTGGLTKKFTGLLGGFLTLPINVPGTTYNKCMKDMKEIQKKLREILEGRLASGAGSDEDFLGQAVKDKGSQKFISDDFIIQLLFSISFASFESISTTLTLILNYLADHPDVVKELEAEHEAIRNARADPDGPITWEEYKSMTFTLHVIFETLRLGSVTPALLRKTTKELQINGYTIPEGWTVMLVTASRHRDPAVYKDPHTFNPWRWKELDSITIQKNFMPFGGGLRHCAGAEYSKVYLCTFLHILFTKYRWTKLKGGKVARAHILSFEDGLHMKFTPKE

Test system: cucurbitadienol
Test: 11-OH cucurbitadienol production from cucurbitadienol by CYP450s expressed in S. cerevisiae, LCMS
Assay type: cell-based
Conditions: S. cerevisiae strain producing cucurbitadienol and expressing SgCPR; LCMS peak area of product vs. internal reference; hits over vector only control
Source text: DNA was obtained through gene synthesis either through Genescript, IDT, or Genewiz. For some of the cucurbitadienol synthases, cDNA or genomic DNA was obtained through 10-60 day old seedlings followed by PCR amplification using specific and degenerate primers. DNA was cloned through standard molecular biology techniques or through yeast gap repair cloning (Joska et al., 2014) into one of the following overexpression vectors: pESC-Ura, pESC-His, or pESC-LEU. Gene expression was regulated by one of the following promoters; Gall, Gal10, Tef1, or GDS. Yeast transformation was performed using Zymo Yeast Transformation Kit II. Yeast strains were grown in standard media (YPD or SC) containing the appropriate selection with 2% glucose or 2% galactose for induction of heterologous genes. Yeast strains were grown in shake flask or 96 well plates at 30° ° C., 140-250 rpm. When indicated, lanosterol synthase inhibitor, Ro 48-8071 (Cayman Chemicals) was added (50 ug/ml). Yeast samples producing mogrol precursors, mogrol and mogrosides were processed through one of the following: • Cucurbitadienol and 11-OH Cucurbitadienol: Samples cell pellets were lysed (Yeast Buster) followed by ethyl acetate extraction, drying, and resuspension in methanol. • ·Mogrol and Mogrosides: Samples cell pellets were lysed in 50% ETOH, incubated at 80° C. for 30 min, filtered, dried and resuspended in MeOH for LCMS screening.
For analyzing 11-OH cucurbitadienol, the LCMS method included the use of C8 2.1×100 mm column, gradient 60 to 90% B for 6 minutes at flow rate of 0.55 ml/min. For the enzyme screening, the LCMS method used was a Waters Acquity UPLC Protein BEH C4, 2.1×100 mm, 1.7 μm column and a gradient of 40% to 80% over 5 minutes, 95% B from 5.1 to 5.6 minutes with a flow rate of 0.55 ml/min, and ESI source positive mode single ion monitoring of 425.4.
Additional CYP450s were expressed in S. cerevisiae strain producing cucurbitadienol and expressing SgCPR. DNA and protein sequences for the CYP450 enzymes are shown in SEQ IDs 871-890 and 1024-1049 (see Table 1).

Molecule | Peak Area 11-OH CCB
B1 | 0.3326
B2 | 0.3854
B3 | 0.3833
B4 | 0.2664
B5 | 0.3523
B6 | 0.649
B7 | 0.3528
B8 | 0.4459
